Sequences and labels used below:
B1: IFF21380 (protein)
chain: QQLDKPALTNDLDYLLEGNVNNLPSNGGPYWGKWEAGLMPADCKSIAESQDLDPTDFEVWDIFFDDCQDGWSFCRHVDSADSFETLVDTFGRIPVRMRSWIRHILTIPGDNWAFNSNGNIAFSGTTSANLDVALHETGHSLDLLGAYGSEALSSTQEWLDAYDADSNVPDNYARSNQVENVAQNTVVGIYDKVVPGGFPGVQPNYQNIENQYTLLQDKAGDQIIPGGTCDRHLENSETVSASGSSKKARDSVNKKSRAVAHDPAFKGTYTNIVKDFVPFNTQDYHH
B2: IFF21367 (protein)
chain: QNLNKPVLFTDGLSPHVDSVFFQHLTPTQSTWDQWGWGWIPQACLSVVQGTQFSPYDIEVYNVHYTDCASAVVMCRHNQAQMSIINMIDAFGRVPIHDRQWTQHILALPASSCSAGTGGAVTTFYGPCYIPSVFVHELTHTLDAYVNDQTGSTGSVHVYSTTSSYLNSVNQDSCVPDGYANTSPQEDYAQTSVLALYEKVNPGGLDPIGNWRCLVNAKNNLDSIIGQELTPGGSCTHRWADSAIVCMGPAAGCASSKRGFSTRRGARVAGPKPEPANKKGDPLVSNLTPDLTSAVNAKIDDFSHLVSNHTASIEATIRINAWNKAAGKKTVPVPTA
B3: IFF21335 (protein)
chain: TLDKPVIQPNFPGNGLASLGQGLLDNLAPTHSTWDDWGAGWIPQDCKTLVEGAGFSASDVIPFNIHYDDCAQTWTFCRHKDSPLSEVQILDLFGRLPVRMRSFVRHLVFIPGNKSAGSSGDNVLMTGPVDITVYAHEIGHSLDSHAFDPSYGVPFSTGNVWISNYNLDSAVTDPYAQTSQQENFAQETVVSLYDKVVPGGIGTIQSNWQAIFHQYATLEGYIGDVIIPGGTCTHRLTDSPAVPMSGSAKLRRGLGPKPHVALSPEVEEIEAIPMKSSITMTSFDEAGKPNGTYVINL
B4: IFF21375 (protein)
chain: QTLDKPALTPNLDYLLQGNTDNLQPAASHYGKWEDGWIPADCKSIAEDQQLNPTDFEVYDVFYGDCGDAWSFCRHKSSSDSIDTIIDTFGRVPVRMRSWVRHVLTIPGDNWAFNSNGNIAFSGTTSQNLDVALHETGHSLDLLGAYGETLSSSQTWLDNYNQDPNVPDEYARSNQVENVAQNTVVGIYDKVVPGGFGSVQPNWGNIFHQYSTLQSMAKDTIIPGGTCDRHLANSETVSMASTQSNATRMARIRRVKPSHSFRQTYDNIVEGFTPFSTKDTCHFSWA
B5: IFF21352 (protein)
chain: NLNKPVIQPNFPSLAPGLMSHLSPTHSTWDDWGAGWIPRDCKSMVQGAGFSPNDIIPFNIHYDDCGQTWTFCRHKKSPLSELQILDMFGRLPVRMRSFIRHMVFVPGTRSAGSNGDNILVVGDGDITLFAHEIGHSLDSHAFDPSYGVPFSTGNVWVSNYNLDSAVSDSYAQSSQQENFAQETVISLFDKVVPGGIGTIQPNWRAIFHQYATLQGYIGNVIIPGGTCTHRLTDSPPVPMSGSAKSRRGLGLKPDVSLTPEVKEIEAIPMESSITMTSFNEQGKPSGTYVIHLK
B6: IFF21349 (protein)
chain: VLDKPVIQPNFPGGGLDSLSQGLLDNLAPTQSTWDEWGAGWIPQDCKTLAEGSGFSALDITTFNIYYTDCADAWVFCRHKDAPLSEIDMIDLFGRMPVRMRDFVRHIIAVPGNPSAGSSGDNIQMNGGLPITVFVHETGHSLDSHAFSEPFSLSQAWIDAYNQDSAVPDSYAQTSQQENFAQETVVALYDKVVPGGVGTIQPNWNAIFHAYATLQGYIGDVIIPGGTCVNRLTNSAPVPQSNSAKVRIASEKPDVTLRGNVTVLESIPMGSSIELTHFDAEGKPTGRSTVNLG
B7: IFF21338 (protein)
chain: NLNKPVITPNFPGNGLASLGPGLMNNLAPTHSTWDDWGAGWIPSDCKSMVQGAGFSPNDIIPFNIHYDDCAQTWTFCRHKNSPLSEIQILDIFGRLPVRMRQFVRHLVFVPGNKSAGSNGDNVLMVGDVDVTVFAHEIGHSLDSHAFDPSYGVPFSTGNVWVSNYNLDSAVPDPYAQSSQQENFAQQTVVSLYDKVVPGGIGTIQPNWQAIFHQYATLEGYIGNVIIPGGTCTHRLTDSAPVTMSGSKKSRRALGPKPKVSLSPEVKEIEAIPMESSITMTSFDEHGKPNGTYVIHL
B8: IFF21336 (protein)
chain: NLNKPVITPNFPGNGLASLGQGLMDHLAPTHSTWDDWGAGWIPQDCKSMVQGAGFSPNDIIPFNIHYDDCAQTWTFCRHKNSPLSEIQILDIFGRLPVRMRQFVRHLVFVPGNKSAGSNGDNVLMVGDVDVTVFAHEIGHSLDSHAFDPSYGVPFSTGNVWVSNYNLDSAVPDPYAQSSQQENFAQQTVVSIYDKVVPGGIGTIQPNWQAIFHQYATLEGYIGNVIIPGGTCTHRLTDSAPVTMSGSKKSRRALGPKPKVSLSPKVKEIEAIPMESSITMTSFDEHGKPNGTYVVHL
B9: IFF21340 (protein)
chain: NLNKPVITPNFPGNGLASLGPGLMNNLAPTHSTWDDWGAGWIPADCKSMVQGAGFSPNDIIPFNIHYDDCAQSWTFCRHKNSPLSEIQILDIFGRLPVRMRQFVRHLVFVPGNKSAGSNGDNVLMVGDVDVTVFAHEIGHSLDSHAFDPSYGVPFSTGNVWVSNYNLDSAVPDPYAQSSQQENFAQQTVVSIYDKVVPGGIGTIQPNWQAIFHQYATLEGYIGNVIIPGGTCTHRLTDSAPVTMSGSKKSRRALGPKPKVSLSPKVKEIEAIPMESSITMTSFDEHGKPNGTYVVHL
B10: IFF21339 (protein)
chain: NLNKPVITPNFPGNGLASLGPGLMNNLAPTHSTWDDWGAGWIPSDCKSMVQGAGFSPNDIIPFNIHYDDCAQTWTFCRHKNSPLSEIQILDIFGRLPVRMRQFVRHLVFVPGNKSAGSNGDNVLMVGDVDVTVFAHEIGHSLDSHAFDSSYGVPFSTGNVWVSNYNLDSAVPDPYAQSSQQENFAQQTVVSLYDKVVPGGIGTIQPNWQAIFHQYATLEGYIGNVIIPGGTCTHRLTDSAPVTMSGSKKSRRALGPKPKVSLSPKVKEIEAIPMESSITMTSFDEHGKPNGTYVIHL
B11: IFF21337 (protein)
chain: NLNKPVITPNFPGNGLASLGQGLMDHLAPTHSTWDDWGAGWIPSDCKSMVQGAGFSPNDIIPFNIHYDDCAQSWTFCRHKNSPLSEVQILDIFGRLPVRMRQFVRHLVFVPGNKSAGSNGDNVLMVGDVDVTVFAHEIGHSLDSHAFDPSYGVPFSTGNVWVSNYNLDSAVPDPYAQSSQQENFAQETVVSLYDKAVPGGIGTIQPNWQAIFHQYATLEGYIGDVIIPGGTCTHRLTDSAPVTMSGSKKSRRALGPKPKVSLSPKVKEIEAIPMESSITMTSFDEHGKPNGTYVVHL
B12: IFF21378 (protein)
chain: LDKPALTPDLDYLLDGNTANLPQNGGAHWGKWEDGLMPEDCKSIAEGQDLNPADFEVYDVFYDDCQDAWSFCRHKDSPEDLETLVNTFGRVPVRMRSWVRHVLSIPGNNWAFNSNGNIALSGTTTHNLDVCLHETGHSLDLLGAYVDGALSSTQEWEDAYNKDSAVPDNYARTNQVENVAQNTVVGIYDKVVPGGFPGVQSESQKIENQYKLLQDKAGEQILPGGTCDRHLQNSATVSIKSSSKRENKVVKAREAHDSALKGTYTNIVKEFTPFNTKDFHEEH
B13: IFF21365 (protein)
chain: DDTLSKPALTDNLDYLLDGNVASLPSNGGPYWGKWEDGLMPADCKSIAEDQGLNPTDFEVWDIFFDDCQDGWSFCRHKDSADSFETLVDTFGRVPVRMRSWVRHVLTIPGDNWAFNSNGNICFSGTTSQNLDVALHETGHSLDLLGAYGDGALSSSQEWLDAYNADSNVPDNYARSNQVENVAQNTVVAVYDKNVPGGFPGVQTDYAKIQNQYTLVEDKAGDQIVPGGTCDRHLENSETVPMSGSSAKRDIRIKGRAVGAGAVTHDWKFKGTYSNIVTDFEPFNSKDFHH

This is an account of results in patent US20250051821.

This data set has as its target T1, IFF05588.
T1 chain: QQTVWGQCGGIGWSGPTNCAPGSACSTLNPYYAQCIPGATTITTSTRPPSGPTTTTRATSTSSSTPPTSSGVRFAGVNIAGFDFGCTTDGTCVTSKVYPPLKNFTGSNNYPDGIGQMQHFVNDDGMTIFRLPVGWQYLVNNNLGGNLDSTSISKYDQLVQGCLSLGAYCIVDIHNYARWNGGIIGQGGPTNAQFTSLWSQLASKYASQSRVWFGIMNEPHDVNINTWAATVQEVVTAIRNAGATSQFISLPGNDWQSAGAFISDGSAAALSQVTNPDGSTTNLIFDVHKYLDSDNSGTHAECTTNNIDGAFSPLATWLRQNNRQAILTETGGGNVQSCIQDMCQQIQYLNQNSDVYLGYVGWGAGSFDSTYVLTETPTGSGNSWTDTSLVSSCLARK
On to B1, for which the Relative late peak area (centered, scaled, averaged over 5, 10 and 15 min) was -0.71; the Relative late peak area (centered, scaled, averaged over doses, 24 h; sample diluted 1-fold) was -0.02; the Relative late peak area (reverse phase chromatography, 24 h) was found to be 0.61.
In the case of B2, the Relative late peak area (centered, scaled, averaged over 5, 10 and 15 min) was -0.67; the Relative late peak area (centered, scaled, averaged over doses, 24 h; sample diluted 1-fold) is 0.19.
B3: the Relative late peak area (centered, scaled, averaged over 5, 10 and 15 min) was determined as 0.67; the Relative late peak area (centered, scaled, averaged over doses, 24 h; sample diluted 10-fold) was 0.3; the Relative late peak area (reverse phase chromatography, 24 h) was found to be 0.66.
For B4 the same measures were 1.08, 0.42 and 0.63.
Turning to B5, the Relative late peak area (centered, scaled, averaged over 5, 10 and 15 min) was -0.63; the Relative late peak area (centered, scaled, averaged over doses, 24 h; sample diluted 1-fold) was determined as 0.42.
For the protein B6, the Relative late peak area (centered, scaled, averaged over 5, 10 and 15 min) is 0.02; the Relative late peak area (centered, scaled, averaged over doses, 24 h; sample diluted 2-fold) amounted to 0.56.
For the protein B7, the Relative late peak area (centered, scaled, averaged over 5, 10 and 15 min) was determined as 1.11; the Relative late peak area (centered, scaled, averaged over doses, 24 h; sample diluted 10-fold) was determined as 0.59; the Relative late peak area (reverse phase chromatography, 24 h) stood at 0.6.
Regarding B8, the Relative late peak area (centered, scaled, averaged over 5, 10 and 15 min) was -0.34; the Relative late peak area (centered, scaled, averaged over doses, 24 h; sample diluted 2-fold) came out at 0.36.
As for B9, the Relative late peak area (centered, scaled, averaged over 5, 10 and 15 min) was -0.31; the Relative late peak area (centered, scaled, averaged over doses, 24 h; sample diluted 2-fold) worked out at 0.37; the Relative late peak area (reverse phase chromatography, 24 h) is 0.33.
For B10, the Relative late peak area (centered, scaled, averaged over 5, 10 and 15 min) is -0.05; the Relative late peak area (centered, scaled, averaged over doses, 24 h; sample diluted 2-fold) turned out to be 0.53.
Turning to B11, the Relative late peak area (centered, scaled, averaged over 5, 10 and 15 min) is 0.9; the Relative late peak area (centered, scaled, averaged over doses, 24 h; sample diluted 10-fold) worked out at 0.52.
With B12, the Relative late peak area (centered, scaled, averaged over 5, 10 and 15 min) is -0.6; the Relative late peak area (centered, scaled, averaged over doses, 24 h; sample diluted 1-fold) worked out at 0.1; the Relative late peak area (reverse phase chromatography, 24 h) is 0.52.
Regarding B13, the Relative late peak area (centered, scaled, averaged over 5, 10 and 15 min) came to 1.04; the Relative late peak area (centered, scaled, averaged over doses, 24 h; sample diluted 10-fold) is 0.38; the Relative late peak area (reverse phase chromatography, 24 h) was determined as 0.61.
